One molecule from paper PMC5003816 can be followed below.

The experiment deals with HSP70 (mouse, endogenous), Q61696. The experiment can be described thus: UBQLN2 IP and western blot quantification (primary MEFs). The following applies: chain shown with the change; n = 3; read off a plot. In general terms: Immunoblotting shows a protein as a band on a membrane.
Chain of HSP70 (mouse, endogenous), Q61696 (Q61696 whole entry): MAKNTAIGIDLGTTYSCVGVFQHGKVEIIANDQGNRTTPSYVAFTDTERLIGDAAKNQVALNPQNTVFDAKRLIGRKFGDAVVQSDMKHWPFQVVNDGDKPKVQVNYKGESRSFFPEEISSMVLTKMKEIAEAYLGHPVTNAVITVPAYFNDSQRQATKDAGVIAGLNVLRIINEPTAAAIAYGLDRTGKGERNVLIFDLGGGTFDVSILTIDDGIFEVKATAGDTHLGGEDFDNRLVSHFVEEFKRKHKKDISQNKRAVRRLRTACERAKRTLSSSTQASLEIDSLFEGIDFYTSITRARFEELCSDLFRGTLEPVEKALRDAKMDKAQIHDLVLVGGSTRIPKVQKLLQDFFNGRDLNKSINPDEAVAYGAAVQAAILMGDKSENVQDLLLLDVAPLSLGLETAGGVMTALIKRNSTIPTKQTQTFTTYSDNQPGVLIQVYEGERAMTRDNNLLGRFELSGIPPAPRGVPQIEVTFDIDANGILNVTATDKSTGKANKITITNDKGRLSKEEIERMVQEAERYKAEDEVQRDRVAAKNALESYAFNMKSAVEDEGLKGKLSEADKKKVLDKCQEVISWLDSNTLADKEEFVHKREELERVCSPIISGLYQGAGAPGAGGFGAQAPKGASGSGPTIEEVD

B1: UBQLN2 (mouse, endogenous, wild type), Q9QZM0 mP520T (protein)
chain: MAENGESSGPPRPSRGPAAAPGAASPPAEPKIIKVTVKTPKEKEEFAVPENSTVQQFKEAISKRFKSQTDQLVLIFAGKILKDQDTLMQHGIHDGLTVHLVIKSQNRPQGQATTQPSTTAGTSTTTTTTTTAAAPAATTSSAPRSSSTPTTTNSSSFGLGSLSSLSNLGLNSPNFTELQNQMQQQLLASPEMMIQIMENPFVQSMLSNPDLMRQLIMANPQMQQLIQRNPEISHLLNNPDIMRQTLEIARNPAMMQEMMRNQDLALSNLESIPGGYNALRRMYTDIQEPMLNAAQEQFGGNPFATVGSSSTSGEGTQPSRTENRDPLPNPWAPPPTTQTAATTTTTTTTSSGSGSGSSSSSTTAGNTMAAANYVASIFSTPGMQSLLQQITENPQLIQNMLSAPYMRSMMQSLSQNPDMAAQMMLSSPLFTSNPQLQEQMRPQLPNFLQQMQNPETIAAMSNPRAMQALMQIQQGLQTLATEAPGLIPSFAPGVGMGVLGTAITPVGPVTPIGPIGPIVTFTPIGPIGPIGPTGPASSPGSTGTGIPPATTVSSSAPTETISPTSESGPNQQFIQQMVQALTGGSPPQPPNPEVRFQQQLEQLNAMGFLNREANLQALIATGGDINAAIERLLGSQPS
As for B1, the ratio to parent was 0.38.
